These results are taken from article PMC12416549 (2024).

Residue numbers refer to the chain shown, from its start. Names and notes keep the numbering of the source.

In this assay the target is T1, TNFR1 (Homo sapiens, UniProt P19438).
T1 chain: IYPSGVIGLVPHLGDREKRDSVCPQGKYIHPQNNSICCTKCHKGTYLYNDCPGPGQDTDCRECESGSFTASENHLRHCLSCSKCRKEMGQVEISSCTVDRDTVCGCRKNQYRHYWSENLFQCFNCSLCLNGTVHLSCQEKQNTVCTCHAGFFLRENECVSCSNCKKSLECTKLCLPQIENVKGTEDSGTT
Nature of the assay: yeast display SC50.

B1: I21H (designed binder)
chain: SMEEEVEKAAKEYEKKKKEAHEKHLEKLKAKDKEAAERFLKELEEAAKEYAKDEAKTMSEEEAKRRAKKYKEKVLLSELSEEEQKEIKEAEEKLVRTILKYVEEAAK
With B1, the “apparent Kd (screen)” value was 1.05 nM.

B2: Y101T (designed binder)
chain: B1 chain with H21I, Y101T
As for B2, the “apparent Kd (screen)” value came to 0.49 nM.

B3: L94V (designed binder)
chain: B1 chain with H21I, L94V
Consider B3, for which the “apparent Kd (screen)” value is 0.446 nM.

B4: E49Q (designed binder)
chain: B1 chain with H21I, E49Q
Regarding B4, the “apparent Kd (screen)” value stood at 3 nM.

B5: E44H (designed binder)
chain: B1 chain with H21I, E44H
Regarding B5, the “apparent Kd (screen)” value is 3 nM.

B6: K48S (designed binder)
chain: B1 chain with H21I, K48S
In the case of B6, the “apparent Kd (screen)” value was determined as 0.446 nM.

B7: E19D (designed binder)
chain: B1 chain with E19D, H21I
In the case of B7, the “apparent Kd (screen)” value was determined as 0.446 nM.

B8: A63F (designed binder)
chain: B1 chain with H21I, A63F
On to B8, for which the “apparent Kd (screen)” value is 10.4 nM.

B9: K29W (designed binder)
chain: B1 chain with H21I, K29W
For B9, the “apparent Kd (screen)” value worked out at 0.869 nM.

B10: E4M (designed binder)
chain: B1 chain with E4M, H21I
In the case of B10, the “apparent Kd (screen)” value came out at 0.653 nM.

B11: L25R (designed binder)
chain: B1 chain with H21I, L25R
For B11, the “apparent Kd (screen)” value came to 1.69 nM.

B12: K29T (designed binder)
chain: B1 chain with H21I, K29T
As for B12, the “apparent Kd (screen)” value amounted to 0.593 nM.

B13: L76D (designed binder)
chain: B1 chain with H21I, L76D
Take B13: the “apparent Kd (screen)” value amounted to 1.16 nM.

B14: A105Y (designed binder)
chain: B1 chain with H21I, A105Y
Regarding B14, the “apparent Kd (screen)” value was 2.73 nM.

B15: H24P (designed binder)
chain: B1 chain with H21I, H24P
For the molecule B15, the “apparent Kd (screen)” value turned out to be 12.5 nM.

B16: E14W (designed binder)
chain: B1 chain with E14W, H21I
B16: the “apparent Kd (screen)” value amounted to 10.4 nM.

B17: E82M (designed binder)
chain: B1 chain with H21I, E82M
For B17, the “apparent Kd (screen)” value was 0.79 nM.

B18: E5Q (designed binder)
chain: B1 chain with E5Q, H21I
In the case of B18, the “apparent Kd (screen)” value worked out at 0.446 nM.

B19: H24D (designed binder)
chain: B1 chain with H21I, H24D
In the case of B19, the “apparent Kd (screen)” value was determined as 1.4 nM.

B20: R66I (designed binder)
chain: B1 chain with H21I, R66I
For the molecule B20, the “apparent Kd (screen)” value was 22.2 nM.

B21: A35M (designed binder)
chain: B1 chain with H21I, A35M
Regarding B21, the “apparent Kd (screen)” value was determined as 0.446 nM.

B22: K27C (designed binder)
chain: B1 chain with H21I, K27C
Regarding B22, the “apparent Kd (screen)” value was found to be 0.593 nM.

B23: I21P (designed binder)
chain: B1 chain with H21P
On to B23, for which the “apparent Kd (screen)” value stood at 13.8 nM.

B24: E89Q (designed binder)
chain: B1 chain with H21I, E89Q
With B24, the “apparent Kd (screen)” value was determined as 1.05 nM.

B25: K88G (designed binder)
chain: B1 chain with H21I, K88G
For B25, the “apparent Kd (screen)” value is 0.49 nM.

B26: V6W (designed binder)
chain: B1 chain with V6W, H21I
With B26, the “apparent Kd (screen)” value stood at 0.49 nM.

B27: I98W (designed binder)
chain: B1 chain with H21I, I98W
On to B27, for which the “apparent Kd (screen)” value was 1.86 nM.

B28: A105E (designed binder)
chain: B1 chain with H21I, A105E
Turning to B28, the “apparent Kd (screen)” value amounted to 0.446 nM.

B29: E92M (designed binder)
chain: B1 chain with H21I, E92M
For the molecule B29, the “apparent Kd (screen)” value is 12.5 nM.

B30: K107W (designed binder)
chain: B1 chain with H21I, K107W
For the molecule B30, the “apparent Kd (screen)” value stood at 5.84 nM.

B31: K11C (designed binder)
chain: B1 chain with K11C, H21I
In the case of B31, the “apparent Kd (screen)” value was 1.69 nM.

B32: A51L (designed binder)
chain: B1 chain with H21I, A51L
For the molecule B32, the “apparent Kd (screen)” value amounted to 2.73 nM.

B33: T57C (designed binder)
chain: B1 chain with H21I, T57C
In the case of B33, the “apparent Kd (screen)” value is 2.73 nM.

B34: Y70R (designed binder)
chain: B1 chain with H21I, Y70R
In the case of B34, the “apparent Kd (screen)” value worked out at 5.31 nM.

B35: L94W (designed binder)
chain: B1 chain with H21I, L94W
As for B35, the “apparent Kd (screen)” value came to 0.446 nM.

B36: T57G (designed binder)
chain: B1 chain with H21I, T57G
Regarding B36, the “apparent Kd (screen)” value came to 10.4 nM.

B37: E12P (designed binder)
chain: B1 chain with E12P, H21I
With B37, the “apparent Kd (screen)” value came to 9.41 nM.

B38: Y70Q (designed binder)
chain: B1 chain with H21I, Y70Q
Turning to B38, the “apparent Kd (screen)” value came out at 5.84 nM.

B39: L76A (designed binder)
chain: B1 chain with H21I, L76A
B39: the “apparent Kd (screen)” value is 4.83 nM.

B40: K33D (designed binder)
chain: B1 chain with H21I, K33D
In the case of B40, the “apparent Kd (screen)” value was found to be 1.05 nM.

B41: L99H (designed binder)
chain: B1 chain with H21I, L99H
With B41, the “apparent Kd (screen)” value stood at 4.83 nM.

B42: I98S (designed binder)
chain: B1 chain with H21I, I98S
Take B42: the “apparent Kd (screen)” value came to 11.4 nM.

B43: L28D (designed binder)
chain: B1 chain with H21I, L28D
For the molecule B43, the “apparent Kd (screen)” value stood at 0.956 nM.

B44: S59C (designed binder)
chain: B1 chain with H21I, S59C
Take B44: the “apparent Kd (screen)” value was found to be 2.73 nM.

B45: E42G (designed binder)
chain: B1 chain with H21I, E42G
Consider B45, for which the “apparent Kd (screen)” value came out at 12.5 nM.

B46: E42M (designed binder)
chain: B1 chain with H21I, E42M
As for B46, the “apparent Kd (screen)” value is 12.5 nM.

B47: L94A (designed binder)
chain: B1 chain with H21I, L94A
Consider B47, for which the “apparent Kd (screen)” value came out at 0.49 nM.

B48: E82D (designed binder)
chain: B1 chain with H21I, E82D
Turning to B48, the “apparent Kd (screen)” value came to 1.05 nM.

B49: K16N (designed binder)
chain: B1 chain with K16N, H21I
Consider B49, for which the “apparent Kd (screen)” value amounted to 0.335 nM.

B50: T57Q (designed binder)
chain: B1 chain with H21I, T57Q
On to B50, for which the “apparent Kd (screen)” value is 0.446 nM.

B51: K18W (designed binder)
chain: B1 chain with K18W, H21I
For the molecule B51, the “apparent Kd (screen)” value was found to be 0.79 nM.

B52: V74F (designed binder)
chain: B1 chain with H21I, V74F
Regarding B52, the “apparent Kd (screen)” value was 9.41 nM.

B53: K52W (designed binder)
chain: B1 chain with H21I, K52W
For the molecule B53, the “apparent Kd (screen)” value was determined as 5.31 nM.

B54: A51Q (designed binder)
chain: B1 chain with H21I, A51Q
On to B54, for which the “apparent Kd (screen)” value was found to be 0.446 nM.

B55: V95F (designed binder)
chain: B1 chain with H21I, V95F
B55: the “apparent Kd (screen)” value is 13.8 nM.
